The assay has as its target αVβ1/3/5 integrins located in the cardiomyocyte cell membrane. In words: cell-based or functional assay.

Consider “Recombinant periostin, purified from HEK293 cells expressing the full-length human cDNA (from UniProt Q15063 22-836) (ligand)”, for which the half-maximal stimulation of DNA synthesis in primary neonatal rat ventricular cardiomyocytes (BrdU uptake) worked out at 155 nM.
